Results taken from PMC7790537 (PLoS ONE, 2021).

Target: recombinant trimeric HA of A/Puerto Rico/8/1934 (H1N1) (influenza A virus A/Puerto Rico/8/1934 …, UniProt P03452)
Test: cell-based or functional assay

recombinant trimeric HA of A/Puerto Rico/8/1934 (H1N1), sequence (P03452 18-528): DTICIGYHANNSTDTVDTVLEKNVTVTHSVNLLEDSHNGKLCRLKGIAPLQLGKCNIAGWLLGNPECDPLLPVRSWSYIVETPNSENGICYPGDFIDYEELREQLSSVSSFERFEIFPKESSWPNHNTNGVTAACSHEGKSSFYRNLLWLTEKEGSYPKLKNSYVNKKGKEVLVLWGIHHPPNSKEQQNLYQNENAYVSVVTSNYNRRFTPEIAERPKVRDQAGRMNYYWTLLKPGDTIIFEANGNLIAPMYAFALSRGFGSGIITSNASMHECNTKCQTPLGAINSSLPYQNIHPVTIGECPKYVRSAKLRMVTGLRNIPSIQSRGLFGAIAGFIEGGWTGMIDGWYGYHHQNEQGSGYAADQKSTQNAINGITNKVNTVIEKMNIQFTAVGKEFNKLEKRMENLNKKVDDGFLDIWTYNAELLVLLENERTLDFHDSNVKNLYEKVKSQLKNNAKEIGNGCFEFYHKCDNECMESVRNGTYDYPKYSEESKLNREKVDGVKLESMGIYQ

Binder	HI activity, minimum HI concentration, PR8 virus	NI activity, EC50 (NI-ELLA), PR8 virus	NT activity, minimum virus-neutralizing concentration, PR8 virus
F11 IgA1 polymer (antibody, V domains shown) VH: QVQLVQSGAEVKRPGSSVRVSCRTSGGSFTSFAISWVRQAPGQGLEWMGRITRILGVPNYAQKFQGRVTITADMPTTTAYLDLTNLRSEDTAVYYCARDSGTSHGDFDYWGQGTLVTVSS VL: EIVLTQSPVTLSLSPGERATLSCRASQNVINSLVWYQQKPGQAPRLLIYGASNRATGIPARFRGSGSGTDFTLTIDSLEPEDIAVYYCQQRGTWLWSFGQGTKVEIK	500 µg/mL	0.222 µg/mL	25 µg/mL
F11 IgA2m2 polymer (antibody, V domains shown) VH: QVQLVQSGAEVKRPGSSVRVSCRTSGGSFTSFAISWVRQAPGQGLEWMGRITRILGVPNYAQKFQGRVTITADMPTTTAYLDLTNLRSEDTAVYYCARDSGTSHGDFDYWGQGTLVTVSS VL: EIVLTQSPVTLSLSPGERATLSCRASQNVINSLVWYQQKPGQAPRLLIYGASNRATGIPARFRGSGSGTDFTLTIDSLEPEDIAVYYCQQRGTWLWSFGQGTKVEIK	500 µg/mL	0.418 µg/mL	50 µg/mL
F11 IgA1 monomer (antibody, V domains shown) VH: QVQLVQSGAEVKRPGSSVRVSCRTSGGSFTSFAISWVRQAPGQGLEWMGRITRILGVPNYAQKFQGRVTITADMPTTTAYLDLTNLRSEDTAVYYCARDSGTSHGDFDYWGQGTLVTVSS VL: EIVLTQSPVTLSLSPGERATLSCRASQNVINSLVWYQQKPGQAPRLLIYGASNRATGIPARFRGSGSGTDFTLTIDSLEPEDIAVYYCQQRGTWLWSFGQGTKVEIK	354 µg/mL	0.301 µg/mL	50 µg/mL
F11 IgA2m2 monomer (antibody, V domains shown) VH: QVQLVQSGAEVKRPGSSVRVSCRTSGGSFTSFAISWVRQAPGQGLEWMGRITRILGVPNYAQKFQGRVTITADMPTTTAYLDLTNLRSEDTAVYYCARDSGTSHGDFDYWGQGTLVTVSS VL: EIVLTQSPVTLSLSPGERATLSCRASQNVINSLVWYQQKPGQAPRLLIYGASNRATGIPARFRGSGSGTDFTLTIDSLEPEDIAVYYCQQRGTWLWSFGQGTKVEIK	500 µg/mL	0.683 µg/mL	89.1 µg/mL
